Results: PMC11812572 (2025)

How the values were obtained:
[1] = target: T1, recombinant human cytoplasmic dynein 1 complex with mEGFP fused to its heavy chain, mEGFP-dynein (human, UniProt Q14204 1-4646; O43237-1 1-492; P63172 1-113; Q9NP97-1 1-96; P63167 1-89); assay: apparent, from TIRF dynein activation (run frequency); with 14 nM dynactin and 100 nM Lis1
[2] = target: T1, recombinant human cytoplasmic dynein 1 …; assay: apparent, from TIRF dynein activation (run frequency); with 14 nM dynactin and 200 nM NuMA^N-term

| Kd [1] | Kd [2] | Binder |
| --- | --- | --- |
| 51 nM | – | AF546- or AF647-labelled SNAP-tagged human NuMA N-terminal fragment (first 705 aa), NuMA^N-term (domain or fragment, SNAP-tag labelled with SNAP-Surface Alexa Fluor 546 or SNAP-Surface Alexa Fluor 647) MTLHATRGAALLSWVNSLHVADPVEAVLQLQDCSIFIKIIDRIHGTEEGQQILKQPVSERLDFVCSFLQKNRKHPSSPECLVSAQKVLEGSELELAKMTMLLLYHSTMSSKSPRDWEQFEYKIQAELAVILKFVLDHEDGLNLNEDLENFLQKAPVPSTCSSTFPEELSPPSHQAKREIRFLELQKVASSSSGNNFLSGSPASPMGDILQTPQFQMRRLKKQLADERSNRDELELELAENRKLLTEKDAQIAMMQQRIDRLALLNEKQAASPLEPKELEELRDKNESLTMRLHETLKQCQDLKTEKSQMDRKINQLSEENGDLSFKLREFASHLQQLQDALNELTEEHSKATQEWLEKQAQLEKELSAALQDKKCLEEKNEILQGKLSQLEEHLSQLQDNPPQEKGEVLGDVLQLETLKQEAATLAANNTQLQARVEMLETERGQQEAKLLAERGHFEEEKQQLSSLITDLQSSISNLSQAKEELEQASQAHGARLTAQVASLTSELTTLNATIQQQDQELAGLKQQAKEKQAQLAQTLQQQEQASQGLRHQVEQLSSSLKQKEQQLKEVAEKQEATRQDHAQQLATAAEEREASLRERDAALKQLEALEKEKAAKLEILQQQLQVANEARDSAQTSVTQAQREKAELSRKVEELQACVETARQEQHEAQAQVAELELQLRSEQQKATEKERVAQEKDQLQEQLQ |
| – | 148 nM | Lis1 (protein, full-length human Lis1; N-terminal His6-TEV tag (unlabelled construct) or mCherry fusion left out; homodimer by general knowledge, copy number not printed in the text given) MVLSQRQRDELNRAIADYLRSNGYEEAYSVFKKEAELDVNEELDKKYAGLLEKKWTSVIRLQKKVMELESKLNEAKEEFTSGGPLGQKRDPKEWIPRPPEKYALSGHRSPVTRVIFHPVFSVMVSASEDATIKVWDYETGDFERTLKGHTDSVQDISFDHSGKLLASCSADMTIKLWDFQGFECIRTMHGHDHNVSSVAIMPNGDHIVSASRDKTIKMWEVQTGYCVKTFTGHREWVRMVRPNQDGTLIASCSNDQTVRVWVVATKECKAELREHEHVVECISWAPESSYSSISEATGSETKKSGKPGPFLLSGSRDKTIKMWDVSTGMCLMTLVGHDNWVRGVLFHSGGKFILSCADDKTLRVWDYKNKRCMKTLNAHEHFVTSLDFHKTAPYVVTGSVDQTVKVWECR |
